Data reported in the nanobody polyreactivity screen of Harvey et al. (2022).

Assay: yeast display, Sf9 membrane polyspecificity reagent, FACS + sequencing; frameworks hold sequencing errors
Procedure, shortened: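 A synthetic nanobody library was expressed on Saccharomyces cerevisiae BJ5465 by galactose induction for 36–48 hours. The library was stained for 1 hour at 4 °C with 10% biotinylated, detergent-solubilized Sf9 membrane reagent and enriched with streptavidin microbeads before FACS. Low and high (top ~1%) gates were set on anti-HA fluorescence for expression and streptavidin fluorescence for reagent binding, and each polyreactivity label reflects the gate of origin.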

| Sequence | polyreactivity (PSR sort gate) |
| --- | --- |
| QVQLVESGGCLVQAGGSLRLSCAASGSIFHPYAMGWYRPAPGKERELVAAISKSGGNTYYADSVKGRFTISRDNAKNTVYLQMNSLKPEHTEVYYCAADYYRGRYSDRYDYWGQGTQVTVSS | low polyreactivity |
| QVQLVESGGCLVQAGGSLRLSCAASGSIFNSNAMGWYRPARGKERELVAVISWSDGSTRYADSVKGRFTISRDNAKNTVYLQMHSLKPEDTAVYYCNADLVYYYRQEVDYWGQGTQVTVTS | low polyreactivity |
| QVQLVESGGCLVQAGGSLRLSCAASGSIFPVNAMGWYRQAPGKERELVAAITSSGGTTYYADSVKGRFTISRDNAKNTVYLQMNSLKPEDTAVYYCAADVDVSYWRMEYWGQGTQVTVSS | high polyreactivity |
| QVQLVESGGCLVQAGGSLRLSCAASGSIFVWNVMGWYRKAPGKERELVAAISWRGGTTYYADSVKGRFTISRDNAKNTVYLQMNSLKPEDTAVYYCAKQKHWSVHGGYNYWGQGTQVTVSS | high polyreactivity |
| QVQLVESGGCLVQAGGSLRLSCAASGSTFGYYAMGWYRQAPGKERELVAAITSNDGSTHYADSVKGRFTISRDNAKNTVYLQMNSLKPEDTEVYYCNARSFVAVISSFVYWGQGTQVTVSS | low polyreactivity |
| QVQLVESGGCLVQAGGSLRLSCAASGSTIGVNAMGWYRQAPGKERELVAAISRGGGRTYYADSVKGRFTISRDNAKNTVYLQMNSLKPEDTAVYYCNTDFGARMGYCGQGTQVTVSS | high polyreactivity |
| QVQLVESGGCLVQAGGSLRLSCAASGSTIPLYAMGWYIQAPGKERELVAAITSGGGNTYYADSVKGRYTISRDNAKNTVYLQKTSLKPDDTAVYYCAAVVGYKSYYSYEYDYWGQGTQVNVSS | low polyreactivity |
| QVQLVESGGCLVQAGGSLRLSCAASGSTYKLNAMGWYRQAPGKEREMVAAISRGGRTNYADSVKGRFTISRDNAKNTVYFQMNSLNPEDTAVYYCAKDVAGLFHVGALYYYWGQGSQVTVSS | low polyreactivity |
| QVQLVESGGCLVQAGGSLRLSCAASGYIFSGYAMGWYRQAPGKERELVAAISSNGGSTYYADSVKGRFTISRDNAKNTVYLPMNSMKPEDTAVYYCKRGLAARVGRVDYWGQGTHVTVSS | low polyreactivity |
| QVQLVESGGCLVQAGGSLRLSCAASRSTFSYNAMGWYRHAPRKERELVASSSTSGGSTYYADSVKGRFSISRDNAKNTVYLQINSLTPEDTAVYYCNAPTSDIYSDFDYWGQGTQVTVSS | low polyreactivity |
| QVQLVESGGCLVQAGGSLRLSCAASVRTYETNAKGWYIQAPGKEREFVAAISSSGASTYYADSVKGSFTISRYNAKNTVYLQMNSLKTEDTAVYYCAARRREWGQGTQVTVSS | low polyreactivity |
| QVQLVESGGCLVQAGGSLRLSCAPSGFIFPYYAMGWYRPAPGQERALVAAITSSGGSTYYADSVKGRFTISRDNAKNTVYLQMNSLKPEETAVYYCNKYRRYVDGYEMDYWGQGTQVTVSS | high polyreactivity |
| QVQLVESGGCLVQAGGSLRLSCASSGRTFSWNAMGCYRQAPGKEREFVAAISNSGGSTYYADSVNGRFTISRDNAKNTVYLQMNSLKPEDTAVYYCAVYRYYGFSLWYDYWGQCTQVTVSS | low polyreactivity |
| QVQLVESGGCLVQAGGSLRLSCASSGSTFVRYTLGRYRQAPGKEREMVARISRTSSTNYADSVKGRFTISRDNAKNTVYLQMNSLKPEDTSVYYCNAREYYPTKSRFKYWGQGTQVTVSS | low polyreactivity |
| QVQLVESGGCLVQAGGSLRLSCPPSGSIFIYYAMGWYRHAPGKERELVAAISWSCGDTYYADSVKGRFTISRDNAKNTVYLQMNSLKPEDTAVYYCNADFDPYYPYTAWDSVLTHDEYWGQGTQVTVSS | low polyreactivity |
| QVQLVESGGCLVQAGGSLRLSCSASGSIFNYNDMGWYRQAPGKERELVAAIDSSGTSTYYADSVKGRYTISRDNSKNNVYLQMTSLKPEDTAVYYCNADSSLGFGYWGQGTQVTVSS | low polyreactivity |
| QVQLVESGGCLVQAGGSLRLSGAASGRIFGRNAMGWYRQAPGKERELVAAINSGVSTYYADSVKGRFTIARDNAKNTVYLQMNSLKPEDTAVYYSATDTDYYLLYLYYYWGQGTQVTVSS | low polyreactivity |
| QVQLVESGGCLVQAGGSLRLTCAASGFTLGFNAMGWYRQAPGKERELVAAITIGGTTYYADSVKGRFTLSRDNAKNTVYLQMNSLKPEDTAVYYCAASPVWWYDYWGQGTQVTVSS | low polyreactivity |
| QVQLVESGGCLVQAGGSLRLTCAASGRTFYWNTMGWYRQAPGKERELVAAISSSGDSTYYADSVKGRFTISRDNAKNTVYLQMNCLKPEDTAVYYCAAGRRGTSTTWGQGSQVTVSS | high polyreactivity |
| QVQLVESGGCLVQAGGSLRYSCAASGRTFRYYGMGWYRQAPGKERELVAAISWSGGSTYYADSVKGRFTISRDNAKNTVYLQMNSLKPEDTAVYYCKVAFHWQRFHHKSAAYDYWGQGTQVTVSS | high polyreactivity |
| QVQLVESGGCLVQAGGSLSLSCAASGRIFGAYAMGWYRQAPGTERELVAAISSGGSTYYADSVKGRFTISRDNAKNTVYLQMNSLKPEDTAVYYCAASSGNGYGYWGQGTQVTVSS | high polyreactivity |
| QVQLVESGGCLVQAGGSLSLSCAHSGGNFTFYAMVWYTQAPGKERELVATINWSGGSTYYADSVKGRFTISRDNAKITVYLQMNSLKPADTAVYYCNAAWPYKSVEYWGHGTQVTVSS | low polyreactivity |

| Sequence | polyreactivity (PSR sort gate) |
| --- | --- |
| QVQLVESGGCLVQAGGSRSLSCAASGSIFYRNAMGWYRQAPGKERELVAAIRGSDGSTYYADSVKGRFTISRDNGKNTVYLQMNSLKPEDTAVYSCNADTPTWPLDYWGQGTQVTVSS | low polyreactivity |
| QVQLVESGGCLVQAGGTLRLSCDASGITFSRNTMGWYRQAPGKERELVAAITLRGGGRTYYADSVKGRFTISRDNAKNTDYLQLNSLNPEDTAVYYCARVYSSEKAYGYWGQGTQVTVSS | high polyreactivity |
| QVQLVESGGDLVQAGGSLRLSCAASGITFVYNAMGWYRQAPGKESELVAGITWSGSSTYYADSVKGRFTISRDNAKNTVYFQMNSLKPEDTAVYYCAAYLYERTTRYRVYLQWKHGYWGQGTQVTVSS | high polyreactivity |
| QVQLVESGGDLVQAGGSLRLSCAASGSIFYINAMGWYRQAPGKERELVASISYSGTSTYYADSVKGRFTISRDNAKNTVYLQMNSLKPEDTAVYYCNSEDTPGAGDGYWGQGTQVTVSS | low polyreactivity |
| QVQLVESGGGCSGGRSLRLSCAASGLIFDDNAMGWYRQAPGKERELVAAITWSTSSTYYADSVKGRFTISRDNAKNNVYLQMNSLKREDTAVYYCNKRYKFRYYYWGQGTQVTVSS | low polyreactivity |
| QVQLVESGGGFLQAGGSLRLSCAASGRIFNYYAMGWYRQAPGTERELVAGINWSGTRTYYADSVKGRFTISRDNAKNTVYLQMNSLKPEDTAVYYCNAGRTWRAFTGDEYWGQATQVTVSS | high polyreactivity |
| QVQLVESGGGFVQAGCSLRLSCGASGLTFKTYAMGWYSQARGKERELVAAMSGTGGGTYYADSVKGRFTISRDNAKKTVYLQMNSQKPEDTEVYYCAALHQAYRGFDYWGQGTQVTVSS | high polyreactivity |
| QVQLVESGGGFVQAGGSLRLSCAASGFIFDTYAMGWYRQAPGKERELVAAITTTGGSTYYADSVKGRFTISRDTAKNTVYLQMNSLKPEDTAVYYCAARHYRIHYDYWGQGSQVTVSS | high polyreactivity |
| QVQLVESGGGFVQAGGSLRLSCAASGLTFVANAMGWYRQAPGTESEMVAGITQTGGSTYYADSVKGRFTISRDNAKNTVYLQMISLKPEDTAVYYCAATYRRLRYGKLYYYWGQGTQVTVSS | high polyreactivity |
| QVQLVESGGGFVQAGGSLRLSCAASGNIFPYNAMGWYRQAPGKERELVAAISSGGSTNYADSVKGRFTISRDNAKNTVYLQLNSLQPEDTAVYYCAAARSGGYDYWGQGTQVTVSS | low polyreactivity |
| QVQLVESGGGFVQAGGSLRLSCAASGRIFRYYTMGWYRKAPGKERELVAAISWTGASTYYADSVKGRFTISLDNAKNTLYLQMNSLKPEDTAVYYCAADSYIAHHGFAMDYWGQGTQVTVSS | low polyreactivity |
| QVQLVESGGGFVQAGGSLRLSCAASGRTFLAMGWYRQAPGKERELVAAISRTNYADSVKGRFTISRDNAKNTVYLQMNSLKPEDTAVYYCNARRSYFLRYGVNYWGQGTQVTVSS | low polyreactivity |
| QVQLVESGGGFVQAGGSLRLSCAASGRTYTLNAMRWYRQAPGKERELVAAITWGAGSTYYADSVKGRFTISRDNAKNTVYLQMNSLKPEDTAVYYCAARFHGAYYRYRSPSMYYWGQGTQVTVSS | high polyreactivity |
| QVQLVESGGGFVQAGGSLRLSCAASGSICAGYAMGWYRQAPGKERVLVAGITIGGSTNYADSVKGRFTISRDNAKNTVYLQMNSLKPEDTAVYYCAARRVQSVYRIPRRYHSYGYWGQGTQVTVSS | high polyreactivity |
| QVQLVESGGGFVQAGGSLRLSCAASGSIFVTYAKGWYRQAPGKERDLVAAIKYSGGSTYYADSVKGRFTISRDYAKNTVYLQMNSLKPEDTAVYYCAADERVDQGWIRMDYWGQGTQVTVSS | low polyreactivity |
| QVQLVESGGGFVQAGGSLRLSCAASGSTFGPYAMGWSSQAPGKDRELVAGISSGGSTYYADSVKGRFTISRDNAKNTVYLQMNSLKPEDTAVYYCATRYLYRGYSYFAYDYWGQGTQVTVSS | low polyreactivity |
| QVQLVESGGGFVQAGGSLRLSCAAYGSISVGYTMGWYIQAPGKEREFVAVITGTGGRTRYADSVKGRFTISRDNAKNTVYLQMNSLKPEDTAVYYCAAKIRWRGALYDYWGQGTQVTVSS | high polyreactivity |
| QVQLVESGGGIDQAGGSLRLSCAASGNIFDYYAMGWYRQAPGKEREFVAAISWSGARTYYADSVKGRFTISRDNAKNTVYLQMNRLKPEDTAVYYCAGGQSWRKNDYRYDYWGQGTQVTVSS | high polyreactivity |
| QVQLVESGGGIFQAGGSLRLSCAASGSTFDYNAMGWYRQAPGKERELVADITGSGASTSYADSVKGRFTISRDNEKNTVYLQMKILKPEDTAVYYCNADDSYFYELYGYWGQGTQVTVSS | low polyreactivity |
| QVQLVESGGGIFQEGGSLRLSCAASGLIFRSYDMGWYRQAPGKERELVAAITDLFWSTYYADSVKGRFTISRDNAKNTVYLQMYSLKPEDTAVYYCARDDWVYTNVEMDYWGQVTQVTVSS | high polyreactivity |
| QVQLVESGGGILQAGGSLRLSCAASGLTFPWYAMGWYRLAPGKERELVAAITHSDGNTYADSVKGRFTISRDKAKNTVYLQMNSLKPEDTAVYYCATDTRSQAYYYWGQGTQVTVSS | low polyreactivity |
